A short description of this data set: soluble on expression in E. coli; label from the status in PepcDB or PDB records.
For the sequence “MASKTIIVMSDSHGDRDIVQAIKDKYLGQVDAIFHNGDSELNSSDPIWAGIYVVGGNCDYDTGYPDRLVTQLGTVTIAQTHGHLYHINFTWDKLDYFAQEVVADICLYGHLHRPAAWQVGQTLFMNPGSVTQPRGEINEKLYARVELTDTQIKVDYFTRDHKLYPSLSKEFKR”, the “soluble on expression in E. coli” value is listed as “not soluble”. Take “MSSAGVALSPVRSEPLIMPLVRANSCLDSYPDDTIMIYLTLPGSVIPMRVLESDSIESVKLRIQSYRGFVVRNQKLVFGGRELARSNSNMRDYGVSEGNILHLVLKLSDLQVLDVKTTCGKHCRFHVERGRNIGYVKKQISKKRGDFVDPDEQEILYEGEKLEDQSLINDICRNDDSVLHLLVRRSAKVRVKPVEKNFELSIVAPQAKDKKGREAKSIVPPKKLSLEPVVVNSKAKVPLVVKDMIQSASDGLKSGNSPVRSSEGTGGAYFMQGPSGNKFVGVFKPIDEEPMAENNPQGLPLSPNGEGLKKGTKVGEGALREVAAYILDHPKSGNKSMFGEEIGFAGVPPTAMIECLHPGFNHPKGIKTKIGSLQMFTENDGSCEDMGPLSFPVEEVHKISVLDIRLANADRHGGNILMTKDESGKLVLVPIDHGYCLPESFEDCTFEWLYWPQARKPYSAETQEYIRSLDAEEDIDLLKFHGWKMPAETAQTLRISTMLLKKGVERGLTAFEIGTIMCRETLSKKSLVEEMVEEAQEAVLPGTSEAAFLEALSDVMDYHLDHSQEH”: the “soluble on expression in E. coli” value is recorded as “not soluble”. In the case of “MIRLVAFDLDGTIGDTIPLCLAAFREATTPYVDHELSDDEIARTFGLNEEGMINQVVYGDSREKALNDFYVIYEEMHAILCPKPFEGMKTLIGQLHERNVIVVLITGKGIRSCDITLKQFGMDGCFDRIETGSSEKNRKSEAMKDILLYYGFKSNEMIYVGDAVSDIEACYFVKIQCLSAAWAASTDCEQLEKYNSGYVFSSVRLLRDFL”, the “soluble on expression in E. coli” value is recorded as “not soluble”. The value for “NARTVVMVQFRDIEQETSMRRDLTRTEADLTRTEARLAAFLRNMAEGILVLDDDSRITYASEAASELLKVPVASLVGERFTEFCRAGQSRESVRRALELTTADGGSQSLRYEVELTPGERRWHAGSCQHIGIE” was “not soluble”; that for “MMARVTPDQALISFRNARILWAGHSESRKAVEQQIESLLTAMEKPADYARQLELQREHLDVLKWQINCAARECIYSQHQLMEACTEDALSNFMQANGAALTSALAPFLKGRGGVDVASRILRNALVRQLAITPPEIAGDYRMILDESGVMPDPMMVRDCQSSYTPAQQLRFQQRLDYINGMQE” was “soluble”; that for “MSLNKSTVDYQNAKILMDNFYSSREININGDNVTIVINDIMYIPSIDELEIKNGDKNLIIKFDRDGNKVKYKDIECIEYLNLKKGEEISLFNKSYIVEDITSNYVILKEKDGKEVLTNESFEYDGYKVVVKLVSSDLNTIIVDIYKNEKVLDSPKLTKGKIYYMKGGTLGLMYENCTRIGKGYRFTFRVYSTIKIEEGEDYPLDKEFKVKEISTDKIKLEYKNIDSLGNEIYLFNYTIIPEKCYKDYVLFKVIKRKEKTVDVKDVAYIGDGIYAVKVNNTVHVFYKGKELKNHEKIYLGSVDVYSSNPLNVNKDIILIGGPKVNKIVKELEDKGLLKVNISTNYPGNNRGIILKIKNPYNDNNIYILAGSDRWGTKAAILVFLTKYNDEDTLMVEWDKGEIKIIKEGHHHHHH” was “soluble”. The value for “MSRTQFEPAETYTAYTAYDEAYEAHEAYEAHEAYEAHETYERPAPYDLHSAPTLPYGGTYPSAPPPVHEPTVPALPRQSDGRAERRRRARGAGRADASLRRLVPRALVVAFLAGGTTAFVAKDKAVELTVDGSPRTLHTFADDVSELLAEEGVQVGAHDVIAPAPGTPLTSGEDVTVHHGRPVLLTLDGHRRQVWTTAGTVAGALRQLGVRTQGAYLSTGPSRRIGREGLALVVRTERVVTVMADGRTRTVRTNAATVGEVVEEAGITLRGEDTTSVPATGFPRDGQTVTVLRITGSQEVREDPIPFDERRAEDASLFRGTEVVQEAGRPGLRRTTYALRTVNGVRQKPRRLRTEVVREPSPRIVRVGTRPRPASVHGADHLNWQGLAACESGGRADAVDPSGTYGGLYQFDSATWHGLGGEGRPEDASAAEQTYRAQKLYVRSGADAWPHCGARLRELEHHHHHH” was “not soluble”. The value for “SSTIGSFEGFQAVSLKQEGDDQPSETDHLSMEEEDPMPRQISRQSSVTESTLYPNPYHQPYISRKYFATRPGAIETAMEDLKGHVAETSGETIQGFWLLTKIDHWNNEKERILLVTDKTLLICKYDFIMLSCVQLQRIPLSAVYRICLGKFTFPGMSLDKRQGEGLRIYWGSPEEQSLLSRWNPWSTEVPYATFTEHPMKYTSEKFLEICKLSGFMSKLVPAIQNAHKNSTGSGRGKKLMVLTEPILIETYTGLMSFIGNRNKLGYSLARGSIGF” was “soluble”; that for “MAHHHHHHMPSLNNNTIREDVIFKRRVKDVLLRHGGTGGLVKVLIDFNAREAVAARQQRQTTSTDSGSSRTDVGLSHAQLLLFLQDYGVELTPFEAAYLCRAFDDHGSGFISGETFTRHLTGLNERRLRAVKKAWQSLERRNGASGKVSRELLLSTFAAVAAERAHAAAGDPGNPADGAAHDAIATTSFSSPVGGALQSTFGGGHGMHEHLKEAYMTSMMGRGSGFMAKPNAAAGGADGESGEAADRVSYAEYLAFYAGVSPQFATDEAFVTHVLQSWAADDAARPALDETAREWGPDGDPLALDGPRYVKEALNLELGISSKSYNYSHMQREHPYVEPLPPLNRPDIMATTMQRTYVPFDKAAQMLADPLVTRRGQSK” was “not soluble”. For the sequence “MGSDKIHHHHHHMRVILAPMQGVLDPFVRELLTEVNDYDLCITEFVRVVDQLLPEKVFYRLCPELKNQGFTSSGTPVRVQLLGQHPKCLAENAIRAIDLGSHGIDLNCGCPSKTVNGSNGGAALLKQPELIYRATQALRRAVPSEFPVSVKVRLGWDDISQAFEIADAVEQGGATEITVHGRTKADGYRADRINWKKISEVRERLSIPVIANGEIWHWQDGQDCLSQTGCQDLMVGRGALNIPNLSHVLKSNAEKMPWYEIQKILQKYANVENEYDSGFYHVARIKQWLRYLNKEYNEANQVFDKIKTCQTAEDLKLRLNEK”, the “soluble on expression in E. coli” value is given as “not soluble”. Turning to “MLMFDPVPVKQEAMDPVSVSYPSNYMESMKPNKYGVIYSTPLPEKFFQTPEGLSHGIQMEPVDLTVNKRSSPPSAGNSPSSLKFRSSHRRASPGLSMPSSSPPIKKYSPPSPGVQHFGVPLSMPPVMAAALSRHGIRSPGILPVIQPVVVQPVPFMYTSHLQQPLMVSLSEEMENSSSSMQVPVIESYEKPISQKKIKIEPGIEPQRTDYYPEEMSPPLMNSVSPPQALLQE”, the “soluble on expression in E. coli” value is “soluble”. Turning to “KEDMATSELNKTVQKVEEVSKKIKNKAKPKVVWASVYEGSAYIAPKDSYVDNMIKMAGGINACASIDSNEGRVSIEQLHEVAKDADIFVYSSSSDYAPNLDSIKSSAPVLADLDVVKNGNLWVFAPDYYQSVDKTDELIVDLVEMFHPGTTGEKIKHYINYDK”, the “soluble on expression in E. coli” value is recorded as “not soluble”. The value for “MARNPRTTVRRILNSAPRSLLIQSVTIVALDPTDNNHGSHQPGSNGPSNSSTQADNFETETTADEERQKEDGVEDELEDEETTGFIDEDGEIRYPVDEVGNYEIDQEAETDESFYLDTQRDSSLCDERSQLCRSLSDQNLRTTFFLITTTNSKAAILRYLHFHNVSQDSILRKLLLNDSHLTLVEVCNLCAQNIELCKCEDMQEKCQLIFGDLKKWLEVILNSFANIMMKTKTTILEGYNSSSPINKGIFKKKLLSEMADNEMWMHFESSFDGIKVHKNGNQNIWPYSLLNLDLEDVHRASPQALILAALFIGFKNPTTKIHDRLTQWILLQMDEHVFFSEGVAWKADLTCANHDDPARRIVYNQCGLRSSGSCNFCLNQETECKINDEYTTLRENLTGSCPSTMNDGLRQRNQHSHFHKHVLYMHLCPVTSNARMLPKRVHFSALFSKGKWNLFPSKSVDFSSTPSLPSRFRSLSGKASQCTGSEKALSIVVAAAFSGELGGVSSAIILSIHGLYRLCIEPQSITDETLHLKIEQISKSIEVLIVKRAPEMLNGIKVHQVLYHLARMTELYGSLFPLSTQWFEYFYHTIQRTLVPEIYNGLGMSIMRKMSALQEIKTEAAFRLHTNHQFRTEANLKMCYELGLLRRLKRISVVPTPPQYQQFCETGDVFLNVVYHDGIRYSNYCNKKTDDSNVTFIEYARVRFAKIIGMLLKENNTDLRFILKKYCNTNDHLIDISNKLYEEDVPQMHIQNWVDSVSKSSFGGRVTLTNTVVVVSADSIVGHAVVVKRNNNCVALPFSRRISLS” was “not soluble”; that for “GSHMESGYAQNGDLEDAELDDYSFSCYSQLEVNGSQHSLTCAFEDPDVNTTNLEFEICGALVEVKCLNFRKLQEIYFIETKKFLLIGKSNICVKVGEKSLTCKKIDLTTIVKPEAPFDLSVVYREGANDFVVTFNTSHLQKKYVKVLMHDVAYRQEKDENKWTHVNLSSTKLTLLQRKLQPAAMYEIKVRSIPDHYFKGFWSEWSPSYYFRTPEINNSSGEMD” was “soluble”; that for “MFLSTKFLPMSDTVIRIENLSKKYIIAHQQQERYTVLRDVIANQIKSLGSLINPKAKTENPNCEEFWALKDVSFEIKQGDRVGIIGRNGAGKSTLLKILSRITEPTHGCINIKGRIASLLEVGTGFHPELTGRENIYLNGAILGMSKAEIKRKFDEIVAFSEVEKFLDTPVKRYSSGMYVRLAFAVAAHLEPEILIVDEVLAVGDAAFQQKCLGKMEDVGKEGRTVLFVSHNMATVKQLCNCAFLLYQGNLIFQGNPHEAISQYMQKSTQGKHFHQANIYHHIKGDFRAEIEKITINNLDNSEIALSIFEKVKISIKYKINKPIDELDFFVLIYNLEDGEVQTSLFQRDSLSNIQPLSNYGTISVEFTNPLMPGKYTISAGIFDKNKRFVDWVELAESFYVESAFINGNKYDQRLGKISIQGTWYAE” was “not soluble”. The value for “MSENIRESISAKTLSKDQMETSYVSLKTWIEDSLDLFKNDLLPLLYPLFIHIYFDLIQQNKTDEAKEFFEKYRGDHYNKSEEIKQFESIYTVQHIHENNFAYTFKNSKYHLSMGRYAFDLLINFLEERNLTYILKILNQHLDIKVYVGPKSEERPQGIETSVVDAEIDLTTFLVSRECEDAILGDEQYRYDHLETYVLQLRKQREMKPKDSVYKPNASQIHAEIEKLKDLCKRVAVNKNNLPSICCYTIHNTYEGLTAAEISNDLKLMACGFKDSYVEVYSLTNESLKKLKSSSELAKSDIKTLNEEKFEEVGSSYKLVGHSGPVYGLKFFSSNKFLVSSSQDCTVCLWSLDLLCLLAVYKAHAFPVWCVDVAPNDYFFASGAGDRQAIVWSVMTSKPERLIISSLSDVTAVKFHPNSSYLFTGSSDHRVRMHDISTASVVRIFCGHTDTVTCMDVSHCGKFLASGSKDRTVLLWDIQSSKLLGKYVGHENTVFSVSFCFYGSVLASCGADNSVRLWDRTDHKGGCLGTYYTKNTPLLCVKFGYRNIISCTGPFIS” was “soluble”; that for “MGSDKIHHHHHHMQKIFDAHLHLWDLEKIPISWIKDDEKLEQNYDFFRMKQEYKEFEFIGAMYVEVNSDDLEKEALFALEQKKLHNLLFCLADFKHKEELSSFREVMHTSKKGAKRLFEADFEEKIEILKTFNIPFEACIKNEELGFLEKFLSKNPNLKVVLNHLGSPKINRLNEYKKDLSFLKKFQNLYIKLSIPDGFSQETPKEFIFELFAFLKENFSENKFIFGSNYPVAKITPAKWAKLIIESKIFDDLDKIFYKNALLIYKGG” was “not soluble”.

Source of the values: the DeepSol protein solubility set.
